Test results taken from patent US20120304318A1, “CANCER DIAGNOSIS AND TREATMENT” (CAMBRIDGE ENTERPRISE LTD, priority 2009, published 2012).

Key:
EJ28 cells [1] = test: Apoptosis of stably transfected EJ28 cells with or without Mitomycin C (caspase activity); assay type: cell-based; conditions: for endogenous apoptosis: stable overexpression in EJ28, no drug; for apoptosis induced by Mitomycin C: stable overexpression in EJ28, 1 μg/ml Mitomycin C, caspase activity
Procedure: Two control EJ28 cells, two OMD stably-transfected EJ28 cells, and a PRELP stably-transfected EJ28 cells are treated with 1 μg/ml of Mitomycin C. Also, as a positive control, EJ28 cells are treated with higher concentration 5 μg/ml of Mitomycin C as a positive control. Then, the ratios of apoptotic cells were determined by measuring caspase activities.
(§1) OMD and PRELP were subcloned into pIRES2-EGFP (Clontech). A bladder cancer cell line, EJ28, was stably transfected with these plasmids by selection with G418. Two independent clones were derived for each plasmid (except MT-Prelp, where it was only possible to derive one). Then, the properties of these cells were examined. […] These cells include apoptotic ones. This contrasted with control cells, which were flat and cuboidal. […] Two independent clones of OMD and EGFP expressing EJ28 cells, two independent control EJ28 clones expressing EGFP, and a PRELP with myc tag and EGFP expressing EJ28 cells were treated with 1 μg/ml Mitomycin C. Also, EGFP expressing EJ28 cells were treated with higher concentration of Mitomycin C (5 μg/ml) as a positive control.

[2] = tested on: EJ28 bladder cancer cells; test: EJ28 xenograft in nude mice, tumour volume; assay type: in vivo, MF1 nude mice; conditions: day 18
Procedure: To evaluate in vivo effect of OMD or PRELP activation in cancer cells, xenograft experiments were performed using nude mice. EJ28 bladder cancer cells expressing OMD or EJ28 control cells were injected into the mice and cancer development was monitored for three weeks. […] This observation confirms the utility of OMD/PRELP based cancer treatment.
FIG. 15 Effect of xenograft of EJ28 cells overexpressing OMD protein. EJ28 bladder cancer cells or EJ28 cells overexpressing OMD were inoculated into nude mice and then cancer development was monitored for three weeks. The result at 18 days is shown.
Six- to eight-week-old male MF1 nude mice were obtained from Royal Free Hospital London UK. Tumors were induced by inoculation of 5×10^6 EJ28 cancer bladder cells s.c. on the back. EJ28 tumour-bearing MF-1 mice (n=5) were injected with cells subcloned with stably transfected with OMD-myc tag in pIRES2-EGFP vector, using Lipofectamine 2000 (Invitrogen). […] Tumour dimensions were measured continuously using a caliper and tumour volumes were calculated using the equation: volume=(π/6)×a×b×c, where a, b, and c represent three orthogonal axes of the tumour. Animals were assessed for tumour growth over 25-day period.
The biological activity of OMD on EJ28 tumour-bearing mice was determined by measuring changes in tumour volume.

HEK 293 cells = test: Mitomycin C induced apoptosis in normal cells (annexin and caspase activity assays); assay type: cell-based; conditions: stable overexpression in HEK 293; 1 ug/ml mitomycin C, 24 h
Procedure: FIG. 10. OMD expression protects normal cells from apoptosis, whilst PRELP expression has no effect. HEK 293 cells stably transfected with either CAT (a control), OMD or PRELP, and assayed to measure the level of apoptosis they underwent in response to treatment with 1 ug/ml mitomycin C. (a) Annexin assay. Cells were treated one dose of the drug, and 24 hours later, they were trypsinized, incubated in the presence of Alexafluor-647 conjugated annexin and propidium iodide, and examined by flow cytometry. The annexin-positive, PI-negative subpopulation, comprising live cells that were in the process of undergoing apoptosis, was identified. (b) Caspase activity assay. One dose of the drug was administered, and 24 h later, cells were incubated in the presence of a substrate that, upon cleavage by caspases, was converted into a luminescent product. Luminescence was quantified and taken to be proportional to caspase activity. In both (a) and (b), error bars refer to standard deviations, and statistical analysis consisted of t-tests.

EJ28 cells [3] = test: Anchorage-independent growth in soft agar; assay type: cell-based; conditions: stable overexpression in EJ28; 2 weeks; relative to control cells
Procedure: FIG. 14. OMD abolishes, and PRELP inhibits, anchorage-independent growth of EJ28 cells. Cells were seeded in DMEM+0.3% agar, overlying a lower layer of DMEM+0.6% agar. 3000 cells were seeded into wells of a 6-well dish in triplicate. Plates were incubated for 2 weeks, and colonies were counted. Error bars are standard deviations. Statistical analysis consisted of one-way ANOVA, with post-hoc Newman-Keuls testing. Letter groupings, “a”, “b” etc, refer to the results of the Newman-Keuls test.
OMD and PRELP also affect the anchorage-independence, a hallmark of cancer cells. Anchorage-independence was measured by seeding cells in soft agar, incubating them for 2 weeks and counting the number of resultant colonies.

[4] = tested on: EJ28 bladder cancer cell line; test: Proliferation and cell cycle of stably transfected EJ28 cells (cell counting, BrdU incorporation, FACS); assay type: cell-based
Source text: Also disclosed herein are novel methods for treatment of cancer based on activation of OMD and/or PRELP. […] If so, it can be inferred that the activation of OMD or/and PRELP would inhibit tumourigenesis and provide novel treatment of cancer. […] To this end, OMD or PRELP was stably over-expressed in the bladder cancer cell line EJ28.
as §1

[5] = stable overexpression in EJ28 vs control cells

## CO[C@@]12[C@H](COC(N)=O)C3=C(C(=O)C(C)=C(N)C3=O)N1C[C@@H]1N[C@@H]12 [Mitomycin C, reference compound]
EJ28 cells [1]; EGFP expressing EJ28 cells, 5 μg/ml Mitomycin C, positive control
  cell death: massive cell death

B1: OMD-myc tag: OMD with myc tag in pIRES2-EGFP vector, stably transfected into EJ28 cells (protein, UniProt Q99983 21-421, looked up)
Osteomodulin: QYETYQWDEDYDQEPDDDYQTGFPFRQNVDYGVPFHQYTLGCVSECFCPTNFPSSMYCDNRKLKTIPNIPMHIQQLYLQFNEIEAVTANSFINATHLKEINLSHNKIKSQKIDYGVFAKLPNLLQLHLEHNNLEEFPFPLPKSLERLLLGYNEISKLQTNAMDGLVNLTMLDLCYNYLHDSLLKDKIFAKMEKLMQLNLCSNRLESMPPGLPSSLMYLSLENNSISSIPEKYFDKLPKLHTLRMSHNKLQDIPYNIFNLPNIVELSVGHNKLKQAFYIPRNLEHLYLQNNEIEKMNLTVMCPSIDPLHYHHLTYIRVDQNKLKEPISSYIFFCFPHIHTIYYGEQRSTNGQTIQLKTQVFRRFPDDDDESEDHDDPDNAHESPEQEGAEGHFDLHYYENQE
modifications: myc tag
notes: OMD with myc tag in pIRES2-EGFP vector, stably transfected into EJ28 cells
[2]; EJ28 cells stably transfected with OMD-myc tag inoculated s.c. in MF-1 nude mice, control 37.91±16.57
  tumour size: 1.60±1.0 mm^3
[2]; OMD-myc tag transfected EJ28 cell line vs vector control
  tumour growth: completely inhibited

B2: PRELP: human PRELP protein (SEQ ID NO:2), stably overexpressed in cells (myc tagged in EJ28) (protein)
chain: QPTRRPRPGTGPGRRPRPRPRPTPSFPQPDEPAEPTDLPPPLPPGPPSIFPDCPRECYCPPDFPSALYCDSRNLRKVPVIPPRIHYLYLQNNFITELPVESFQNATGLRWINLDNNRIRKIDQRVLEKLPGLVFLYMEKNQLEEVPSALPRNLEQLRLSQNHISRIPPGVFSKLENLLLLDLQHNRLSDGVFKPDTFHGLKNLMQLNLAHNILRKMPPRVPTAIHQLYLDSNKIETIPNGYFKSFPNLAFIRLNYNKLTDRGLPKNSFNISNLLVLHLSHNRISSVPAINNRLEHLYLNNNSIEKINGTQICPNDLVAFHDFSSDLENVPHLRYLRLDGNYLKPPIPLDLMMCFRLLQSVVI
HEK 293 cells
  Mitomycin-C mediated apoptosis of normal cells: had no effect
EJ28 cells [3]
  anchorage-independent growth / colony-forming ability in soft agar: a third
[4]; stable overexpression in EJ28
  cell cycle arrest / inhibition: cell cycle inhibition was not observed
[4]; [5]
  proliferation (cell-counting assay): inhibit proliferation
EJ28 cells [1]
  endogenous apoptosis: higher rates of endogenous apoptosis
  apoptosis induced by Mitomycin C: even higher rates of apoptosis

B3: OMD: human osteomodulin protein (SEQ ID NO:1), stably overexpressed in cells from an expression plasmid (protein, listed as Homo sapiens)
chain: MGFLSPIYVIFFFFGVKVHCQYETYQWDEDYDQEPDDDYQTGFPFRQNVDYGVPFHQYTLGCVSECFCPTNFPSSMYCDNRKLKTIPNIPMHIQQLYLQFNEIEAVTANSFINATHLKEINLSHNKIKSQKIDYGVFAKLPNLLQLHLEHNNLEEFPFPLPKSLERLLLGYNEISKLQTNAMDGLVNLTMLDLCYNYLHDSLLKDKIFAKMEKLMQLNLCSNRLESMPPGLPSSLMYLSLENNSISSIPEKYFDKLPKLHTLRMSHNKLQDIPYNIFNLPNIVELSVGHNKLKQAFYIPRNLEHLYLQNNEIEKMNLTVMCPSIDPLHYHHLTYIRVDQNKLKEPISSYIFFCFPHIHTIYYGEQRSTNGQTIQLKTQVFRRFPDDDDESEDHDDPDNAHESPEQEGAEGHFDLHYYENQE
HEK 293 cells
  Mitomycin-C mediated apoptosis of normal cells: protected normal cells
EJ28 cells [3]
  anchorage-independent growth / colony-forming ability in soft agar: absolutely abolished
[4]; stable overexpression in EJ28
  cell cycle arrest / inhibition: enhanced cell cycle arrest at G1 phase
  proportion of cells in S-phase (FACS analysis): lower proportion of cells in S-phase
[4]; [5]
  BrdU incorporation: lower rate of BrdU incorporation
  proliferation (cell-counting assay): proliferated more slowly than control cells
EJ28 cells [1]
  endogenous apoptosis: increased cell death by apoptosis
  apoptosis induced by Mitomycin C: markedly sensitized
